The numbers were not newly measured in patent US20070014786A1, “Methods for treating taxol-induced gut disorder” (RINAT NEUROSCIENCE CORP., priority 2003, published 2007), which cites them from elsewhere.

For this data set, the target named is T1, low affinity receptor (LNGFR), p75NTR or p75 (Homo sapiens, UniProt P08138).
T1 sequence (P08138 29-427): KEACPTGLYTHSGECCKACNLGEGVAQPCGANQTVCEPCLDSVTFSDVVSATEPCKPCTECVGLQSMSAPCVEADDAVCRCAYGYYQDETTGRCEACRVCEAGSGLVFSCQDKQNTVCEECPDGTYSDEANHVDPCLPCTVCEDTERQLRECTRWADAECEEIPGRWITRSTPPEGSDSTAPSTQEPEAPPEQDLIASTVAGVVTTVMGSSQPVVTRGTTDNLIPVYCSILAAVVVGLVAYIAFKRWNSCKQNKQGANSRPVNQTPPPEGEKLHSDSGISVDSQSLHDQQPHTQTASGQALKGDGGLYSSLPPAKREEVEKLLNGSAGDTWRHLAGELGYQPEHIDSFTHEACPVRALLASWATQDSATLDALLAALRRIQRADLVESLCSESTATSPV
The note with it: according to current knowledge (background).

B1: brain-derived neurotrophic factor (protein, UniProt P23560 19-247, looked up)
Neurotrophic factor BDNF …: APMKEANIRGQGGLAYPGVRTHGTLESVNGPKAGSRGLTSLADTFEHVIEELLDEDQKVRPNEENNKDADLYTSRVMLSSQVPLEPPLLFLLEEYKNYLDAANMSMRVRRHSDPARRGELSVCDSISEWVTAADKKTAVDMSGGTVTVLEKVPVSKGQLKQYFYETKCNPMGYTKEGCRGIDKRHWNSQCRTTQSYVRALTMDSKKRIGWRFIRIDTSCVCTLTIKRGR
notes: neurotrophin family member
As usually defined, the Kd is the equilibrium constant for the complex coming apart. Turning to B1, the Kd is 2 nM.

B2: neurotrophin-4/5 (protein, UniProt P34130 81-210, looked up)
Neurotrophin-4: GVSETAPASRRGELAVCDAVSGWVTDRRTAVDLRGREVEVLGEVPAAGGSPLRQYFFETRCKADNAEEGGPGAGGGGCRGVDRRHWVSECKAKQSYVRALTADAQGRVGWRWIRIDTACVCTLLSRTGRA
notes: neurotrophin family member
Consider B2, for which the Kd is 2 nM.
